Source: patent US20260217833A1 (APTEVO RESEARCH AND DEVELOPMENT, published 2026)
Changes are numbered by the printed parent chain.

B1: CD4001086 (Fc fusion)
chain: EVVMTQSPGTLSLSPGERATLSCRSSQSLVHYNGYTYLHWYQQKPGQAPRLLIYKVSNRFSGIPARFSGSGSGTDFTLTISRLEPEDLAVYFCSQTTHVPLTFGQGTKVEIKGGGGSGGGGSGGGGSGGGGSEVQLVESGGGLVQPGRSLRLSCAASGFTFSSYAMSWVRQAPGKGLEWVASISSAGTYIYYADSVQGRFTISRDNGKNSLYLQMNSLRAEDTALYYCARHGNGYDPLWYFDVWGQGTMVTVSS
notes: Partly humanized 5B9 scFv on the N-terminus of a wildtype IgG1 Fc; not shown: wildtype IgG1 Fc region
B2: CD4001091 (Fc fusion)
chain: DVQMTQSPILLSASVGDRVTITCRSSQSLVHYNGYTYVHWYQQRTNGSPRLLIYKVSNRFSGVPDRFSGSGSGTDFTLTISSLQPEDIADYFCQQTTHVPLTFGAGTKVEIKGGGGSGGGGSGGGGSGGGGSEVQLVESGGGVVQPGRSLRLSCAASGFTFSSYAMSWVRQAPGKGLEWVASISSAGTYIYYADSVKGRFTISRDNSKNTLYLQMNGLRAEDTAVYYCARHGNGYDPLWYFDVWGQGTLVTVSS
notes: As m65; not shown: wildtype IgG1 Fc region
B3: CD4001094 (Fc fusion)
chain: B2 chain with V137L, V143L, R148G, A193T, T201S, G217S, L249T
notes: as for B2
B4: CD4001096 (Fc fusion)
chain: B2 chain with E133Q, V143L, R148G, E178V, S207A, N216T, G217S, V225I, T248A
notes: as for B2
B5: CD4001098 (Fc fusion)
chain: B2 chain with E133Q, V143L, Q145K, R148G, S207A, T210S, G217S, Q246A, L249T
notes: as for B2
B6: CD4001071 (bispecific antibody)
Fc-Knob x PDL_5F9: EPKSSDKTHTCPPCPAPPAAAPSVFLFPPKPKDTLMISRTPEVTCVVVDVSHEDPEVKFNWYVDGVEVHNAKTKPREEQYNSTYRVVSVLTVLHQDWLNGKEYKCAVSNKALPAPIEKTISKAKGQPREPQVYTLPPSRDELTKNQVSLWCLVKGFYPSDIAVEWESNGQPENNYKTTPPVLDSDGSFFLYSKLTVDKSRWQQGNVFSCSVMHEALHNHYTQKSLSLSPGGGGSPSEVQLVESGGGLVKPGGSLRLSCAASGFTFSDYGMAWVRQAPGKGLEWVAFITSLAYIIYYADSVKGRFTISRDNAKNSLYLQMNSLRAEDTAVYYCARNYGSSPYYFDYWGQGTLVTVSSGGGGSGGGGSGGGGSGGGGSDIQMTQSPSSLSASVGDRVTITCRASQDINKFLSWYQQKPGKAPKLLIHYTSSLQPGVPSRFSGSGSGTDFTLTISSLQPEDFATYYCLQYDNLYTFGQGTKLEIK
CD40_5B9 x Fc-Hole x PDL_5F9: DVVMTQTPLSLPVSLGDQASISCRSSQSLVHYNGYTYLHWYLQKPGQSPKLLIYKVSNRFSGVPDRFSGSGSGTDFTLKISRVEAEDLGVYFCSQTTHVPLTFGAGTKLELRGGGGSGGGGSGGGGSGGGGSEVMLVESGGGLVKPGGSLKLSCAASGFTFSSYAMSWVRQTPERRLEWVASISSAGTYIYYPDSVKGRFTISRDNAKNILYLQMNSLRSEDTAMYYCARHGNGYDPLWYFDVWGAGTTVTVSSEPKSSDKTHTCPPCPAPPAAAPSVFLFPPKPKDTLMISRTPEVTCVVVDVSHEDPEVKFNWYVDGVEVHNAKTKPREEQYNSTYRVVSVLTVLHQDWLNGKEYKCAVSNKALPAPIEKTISKAKGQPREPQVYTLPPSRDELTKNQVSLSCAVKGFYPSDIAVEWESNGQPENNYKTTPPVLDSDGSFFLVSKLTVDKSRWQQGNVFSCSVMHEALHNRFTQKSLSLSPGGGGSPSEVQLVESGGGLVKPGGSLRLSCAASGFTFSDYGMAWVRQAPGKGLEWVAFITSLAYIIYYADSVKGRFTISRDNAKNSLYLQMNSLRAEDTAVYYCARNYGSSPYYFDYWGQGTLVTVSSGGGGSGGGGSGGGGSGGGGSDIQMTQSPSSLSASVGDRVTITCRASQDINKFLSWYQQKPGKAPKLLIHYTSSLQPGVPSRFSGSGSGTDFTLTISSLQPEDFATYYCLQYDNLYTFGQGTKLEIK
B7: CD4001072 (bispecific antibody)
Fc-Knob x PDL_5F9: B6 Fc-Knob x PDL_5F9
CD40_1D5 x Fc-Hole x PDL_5F9: DIVMSQSPSSLAVSVGEKVTMSCKSSQSLLFSVNQKNYLAWYQQKPGQSPKLLIYWASTRESGVPDRFTGSGSGTDFTLTIGSVKAEDLAVYYCQHYYSYPWTFGGGTKLEIKGGGGSGGGGSGGGGSGGGGSQVQLQQSGAELMNPGASVRISCKATGYTFSTSWIEWIKQRPGHGLEWIGEILPGSGSTNYNEKFKGKATFTADTSSNTAYMQLSSLTFEDSAVYYCARGDDGSYVRWYFDVWGAGTTVTVSSEPKSSDKTHTCPPCPAPPAAAPSVFLFPPKPKDTLMISRTPEVTCVVVDVSHEDPEVKFNWYVDGVEVHNAKTKPREEQYNSTYRVVSVLTVLHQDWLNGKEYKCAVSNKALPAPIEKTISKAKGQPREPQVYTLPPSRDELTKNQVSLSCAVKGFYPSDIAVEWESNGQPENNYKTTPPVLDSDGSFFLVSKLTVDKSRWQQGNVFSCSVMHEALHNRFTQKSLSLSPGGGGSPSEVQLVESGGGLVKPGGSLRLSCAASGFTFSDYGMAWVRQAPGKGLEWVAFITSLAYIIYYADSVKGRFTISRDNAKNSLYLQMNSLRAEDTAVYYCARNYGSSPYYFDYWGQGTLVTVSSGGGGSGGGGSGGGGSGGGGSDIQMTQSPSSLSASVGDRVTITCRASQDINKFLSWYQQKPGKAPKLLIHYTSSLQPGVPSRFSGSGSGTDFTLTISSLQPEDFATYYCLQYDNLYTFGQGTKLEIK
B8: CD4001081 (bispecific antibody)
Fc-knob x CD40_1D5: EPKSSDKTHTCPPCPAPPAAAPSVFLFPPKPKDTLMISRTPEVTCVVVDVSHEDPEVKFNWYVDGVEVHNAKTKPREEQYNSTYRVVSVLTVLHQDWLNGKEYKCAVSNKALPAPIEKTISKAKGQPREPQVYTLPPSRDELTKNQVSLWCLVKGFYPSDIAVEWESNGQPENNYKTTPPVLDSDGSFFLYSKLTVDKSRWQQGNVFSCSVMHEALHNHYTQKSLSLSPGGGGSPSDIVMSQSPSSLAVSVGEKVTMSCKSSQSLLFSVNQKNYLAWYQQKPGQSPKLLIYWASTRESGVPDRFTGSGSGTDFTLTIGSVKAEDLAVYYCQHYYSYPWTFGGGTKLEIKGGGGSGGGGSGGGGSGGGGSQVQLQQSGAELMNPGASVRISCKATGYTFSTSWIEWIKQRPGHGLEWIGEILPGSGSTNYNEKFKGKATFTADTSSNTAYMQLSSLTFEDSAVYYCARGDDGSYVRWYFDVWGAGTTVTVSS
PDL_5F9 x Fc-Hole x CD40_1D5: EVQLVESGGGLVKPGGSLRLSCAASGFTFSDYGMAWVRQAPGKGLEWVAFITSLAYIIYYADSVKGRFTISRDNAKNSLYLQMNSLRAEDTAVYYCARNYGSSPYYFDYWGQGTLVTVSSGGGGSGGGGSGGGGSGGGGSDIQMTQSPSSLSASVGDRVTITCRASQDINKFLSWYQQKPGKAPKLLIHYTSSLQPGVPSRFSGSGSGTDFTLTISSLQPEDFATYYCLQYDNLYTFGQGTKLEIKEPKSSDKTHTCPPCPAPPAAAPSVFLFPPKPKDTLMISRTPEVTCVVVDVSHEDPEVKFNWYVDGVEVHNAKTKPREEQYNSTYRVVSVLTVLHQDWLNGKEYKCAVSNKALPAPIEKTISKAKGQPREPQVYTLPPSRDELTKNQVSLSCAVKGFYPSDIAVEWESNGQPENNYKTTPPVLDSDGSFFLVSKLTVDKSRWQQGNVFSCSVMHEALHNRFTQKSLSLSPGGGGSPSDIVMSQSPSSLAVSVGEKVTMSCKSSQSLLFSVNQKNYLAWYQQKPGQSPKLLIYWASTRESGVPDRFTGSGSGTDFTLTIGSVKAEDLAVYYCQHYYSYPWTFGGGTKLEIKGGGGSGGGGSGGGGSGGGGSQVQLQQSGAELMNPGASVRISCKATGYTFSTSWIEWIKQRPGHGLEWIGEILPGSGSTNYNEKFKGKATFTADTSSNTAYMQLSSLTFEDSAVYYCARGDDGSYVRWYFDVWGAGTTVTVSS
B9: CD4001076 (bispecific antibody)
PDL_5F9 x Fc-Knob: EVQLVESGGGLVKPGGSLRLSCAASGFTFSDYGMAWVRQAPGKGLEWVAFITSLAYIIYYADSVKGRFTISRDNAKNSLYLQMNSLRAEDTAVYYCARNYGSSPYYFDYWGQGTLVTVSSGGGGSGGGGSGGGGSGGGGSDIQMTQSPSSLSASVGDRVTITCRASQDINKFLSWYQQKPGKAPKLLIHYTSSLQPGVPSRFSGSGSGTDFTLTISSLQPEDFATYYCLQYDNLYTFGQGTKLEIKEPKSSDKTHTCPPCPAPPAAAPSVFLFPPKPKDTLMISRTPEVTCVVVDVSHEDPEVKFNWYVDGVEVHNAKTKPREEQYNSTYRVVSVLTVLHQDWLNGKEYKCAVSNKALPAPIEKTISKAKGQPREPQVYTLPPSRDELTKNQVSLWCLVKGFYPSDIAVEWESNGQPENNYKTTPPVLDSDGSFFLYSKLTVDKSRWQQGNVFSCSVMHEALHNHYTQKSLSLSPG
PDL_5F9 x Fc-Hole x CD40_2H7: EVQLVESGGGLVKPGGSLRLSCAASGFTFSDYGMAWVRQAPGKGLEWVAFITSLAYIIYYADSVKGRFTISRDNAKNSLYLQMNSLRAEDTAVYYCARNYGSSPYYFDYWGQGTLVTVSSGGGGSGGGGSGGGGSGGGGSDIQMTQSPSSLSASVGDRVTITCRASQDINKFLSWYQQKPGKAPKLLIHYTSSLQPGVPSRFSGSGSGTDFTLTISSLQPEDFATYYCLQYDNLYTFGQGTKLEIKEPKSSDKTHTCPPCPAPPAAAPSVFLFPPKPKDTLMISRTPEVTCVVVDVSHEDPEVKFNWYVDGVEVHNAKTKPREEQYNSTYRVVSVLTVLHQDWLNGKEYKCAVSNKALPAPIEKTISKAKGQPREPQVYTLPPSRDELTKNQVSLSCAVKGFYPSDIAVEWESNGQPENNYKTTPPVLDSDGSFFLVSKLTVDKSRWQQGNVFSCSVMHEALHNRFTQKSLSLSPGGGGSPSDIVMTQSHKFMSTSVGDRVSITCKASQDVNTAVAWYQQKPGQSPKLLIYSASYRYTGVPDRFTGSGSGTDFTFTISSVQAEDLAVYYCQQHYSTPWTFGGGTKLEIKGGGGSGGGGSGGGGSGGGGSQVQLQQSGAELAKPGASVKMSCKASGYAFTTYWMHWVKQRPGQGLEWIGYINPTTGYTDYNQKFKDKATLTADKSSSTAYMQLSSLTSEDSAVYYCARWGLPPFAYWGQGTLVTVSA
B10: CD4001078 (bispecific antibody)
PDL_5F9 x Fc-Knob: B9 PDL_5F9 x Fc-Knob
PDL_5F9 x Fc-Hole x CD40_1D5: B8 PDL_5F9 x Fc-Hole x CD40_1D5
B11: CD4001075 (bispecific antibody)
CD40_1D5 x Fc-Knob: DIVMSQSPSSLAVSVGEKVTMSCKSSQSLLFSVNQKNYLAWYQQKPGQSPKLLIYWASTRESGVPDRFTGSGSGTDFTLTIGSVKAEDLAVYYCQHYYSYPWTFGGGTKLEIKGGGGSGGGGSGGGGSGGGGSQVQLQQSGAELMNPGASVRISCKATGYTFSTSWIEWIKQRPGHGLEWIGEILPGSGSTNYNEKFKGKATFTADTSSNTAYMQLSSLTFEDSAVYYCARGDDGSYVRWYFDVWGAGTTVTVSSEPKSSDKTHTCPPCPAPPAAAPSVFLFPPKPKDTLMISRTPEVTCVVVDVSHEDPEVKFNWYVDGVEVHNAKTKPREEQYNSTYRVVSVLTVLHQDWLNGKEYKCAVSNKALPAPIEKTISKAKGQPREPQVYTLPPSRDELTKNQVSLWCLVKGFYPSDIAVEWESNGQPENNYKTTPPVLDSDGSFFLYSKLTVDKSRWQQGNVFSCSVMHEALHNHYTQKSLSLSPG
CD40_1D5 x Fc-Hole x PDL_5F9: B7 CD40_1D5 x Fc-Hole x PDL_5F9

molecular target: T1, human CD40 full-length (human, UniProt P25942 21-277); test: flow cytometry, CHOK1SV/human CD40 cells
T1 construct: Also used for CD40 of Daudi cells, of CD40-expressing HEK293 cells and of the BPS CD40/NFkB HEK293 reporter cells where the row says so; also called CD4001012; CHOK1SV/CD40
T1 sequence (P25942 21-277): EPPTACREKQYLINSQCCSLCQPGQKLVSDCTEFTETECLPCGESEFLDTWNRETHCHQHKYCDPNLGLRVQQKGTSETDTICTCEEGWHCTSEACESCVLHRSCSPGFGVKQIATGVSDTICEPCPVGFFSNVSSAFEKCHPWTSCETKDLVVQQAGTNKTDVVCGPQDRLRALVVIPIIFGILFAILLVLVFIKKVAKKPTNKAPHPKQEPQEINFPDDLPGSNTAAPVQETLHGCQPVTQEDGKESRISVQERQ

| EC50 (read off the curve) [nM] | binding result | Binder |
| --- | --- | --- |
| ~2 | – | B1 |
| – | binds | B2 |
| – | binds | B3 |
| – | binds | B4 |
| – | binds | B5 |

molecular target: T2, Human PD-L1 full-length (human, UniProt Q9NZQ7 19-290); test: flow cytometry, CHOK1SV/human PD-L1 cells
T2 construct: also called PDL01021; CHOK1SV/huPDL1
T2 sequence (Q9NZQ7 19-290): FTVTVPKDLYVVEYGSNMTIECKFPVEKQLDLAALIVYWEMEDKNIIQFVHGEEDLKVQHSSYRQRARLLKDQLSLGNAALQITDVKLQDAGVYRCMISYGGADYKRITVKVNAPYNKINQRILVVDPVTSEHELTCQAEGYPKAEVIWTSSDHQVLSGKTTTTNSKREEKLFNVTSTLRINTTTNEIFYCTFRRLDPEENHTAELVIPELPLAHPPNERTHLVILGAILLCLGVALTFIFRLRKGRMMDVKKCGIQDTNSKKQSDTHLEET

| binding result | Binder |
| --- | --- |
| binds | B6 |
| binds | B7 |
| binds | B8 |
| binds | B9 |
| binds | B10 |
| binds | B11 |
